Changes are numbered by the printed parent chain. Values belong to the binder of their own block, whether it stands above or below them.
Key:
[1] = target: 人Claudin18.2 (human Claudin18.2, 密蛋白18.2) (human) (UniProt P56856); experiment: relative binding activity against the control antibody, after strong-acid stress
[2] = target: 人Claudin18.2 (human Claudin18.2, 密蛋白18.2) (human) (UniProt P56856); experiment: relative binding activity against the control antibody, after repeated freezing and thawing

- 相对结合活性 (relative to the control antibody BY0-0) [1]: 80%
B1: BY6-3 (antibody, IgG1, V domains shown)
VH: QVQLVQSGSELKKPGASVKISCKASGYSFTNYGMNWVRQAPGQGLKWMGWINTNTGEPTYAEEFKGRFVFSLDTSVSTAYLQISSLKAEDTAVYYCARLGFGNAMDYWGQGTLVTVSS
VL: DIVMTQSPDSLAVSLGERATMNCKSSQTLLNSGNQKNYLTWYQQKPGQPPKLLIYWATTRESGVPDRFSGSGSGTDFTLTISSLQAEDVAVYYCQNDYTYPLTFGAGTKLEIK

- 相对结合活性 (relative to the control antibody BY0-0) [1]: 80%
B2: BY6-4 (antibody, IgG1, V domains shown)
VH: B1 VH
VL: B1 VL with Q35N, T99S

- 相对结合活性 (relative to the control antibody BY0-0) [2]: > 80%
B3: BY6-1 (antibody, IgG1, V domains shown)
VH: B1 VH
VL: B1 VL with T99S

Source: patent CN113929780A
